Publication PMC11075064

Target: KCC2 (SLC12A5), neuron-specific K+/Cl- transporter (mouse (endogenous in brain)) (UniProt Q91V14)
Test: co-IP

Sequence of UniProt Q91V14 (Q91V14 whole entry): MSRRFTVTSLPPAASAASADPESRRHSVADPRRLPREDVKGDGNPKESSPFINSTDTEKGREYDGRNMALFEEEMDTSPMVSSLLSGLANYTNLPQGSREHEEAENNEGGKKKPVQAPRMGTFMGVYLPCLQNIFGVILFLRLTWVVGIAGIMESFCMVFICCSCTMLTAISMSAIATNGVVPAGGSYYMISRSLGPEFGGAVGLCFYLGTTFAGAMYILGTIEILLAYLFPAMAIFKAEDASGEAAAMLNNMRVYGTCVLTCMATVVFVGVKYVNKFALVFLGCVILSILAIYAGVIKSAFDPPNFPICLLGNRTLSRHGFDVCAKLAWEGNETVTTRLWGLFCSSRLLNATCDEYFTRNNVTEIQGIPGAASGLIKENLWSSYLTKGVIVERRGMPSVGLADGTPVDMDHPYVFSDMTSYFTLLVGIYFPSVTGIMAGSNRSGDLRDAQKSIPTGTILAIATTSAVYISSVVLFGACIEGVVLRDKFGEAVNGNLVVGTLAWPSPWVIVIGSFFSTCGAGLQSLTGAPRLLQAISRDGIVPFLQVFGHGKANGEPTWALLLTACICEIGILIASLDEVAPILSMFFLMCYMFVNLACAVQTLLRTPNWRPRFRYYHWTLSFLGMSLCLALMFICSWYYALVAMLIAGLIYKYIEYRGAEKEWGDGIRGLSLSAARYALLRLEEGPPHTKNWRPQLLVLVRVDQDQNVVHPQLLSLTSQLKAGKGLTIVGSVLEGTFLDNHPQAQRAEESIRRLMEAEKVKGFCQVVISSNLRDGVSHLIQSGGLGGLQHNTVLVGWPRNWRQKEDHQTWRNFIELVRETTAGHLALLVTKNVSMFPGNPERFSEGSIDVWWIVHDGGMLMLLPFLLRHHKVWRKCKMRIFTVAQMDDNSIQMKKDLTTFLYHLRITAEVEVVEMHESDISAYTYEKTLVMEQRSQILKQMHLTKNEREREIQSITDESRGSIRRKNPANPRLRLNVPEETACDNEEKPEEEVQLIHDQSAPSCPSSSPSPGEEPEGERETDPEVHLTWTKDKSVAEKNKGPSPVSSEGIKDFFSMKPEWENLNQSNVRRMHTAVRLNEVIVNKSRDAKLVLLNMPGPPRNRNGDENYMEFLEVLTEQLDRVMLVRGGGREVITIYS

ratio of PP1/KCC2 immunoreactivity in LMTK3 KO mice, percent of WT: 28.6 % of WT
Substance: catalytic subunit of protein phosphatase-1 (PP1) (from UniProt P62137 1-330) (enzyme)
